From the Human Domainome abundance scans (Beltran et al. 2025)
± gives the uncertainty stated by the source.

B1: E3 ubiquitin-protein ligase TRIM36, residues 208 to 252; numbered along this chain, Q9NQ86 (parent)
chain: KILMCPEHETERINMYCELCRRPVCHLCKLGGNHANHRVTTMSSA

Variants of: B1
Assay: abundance fitness (aPCA) (normalised: wild type 0, dead -1); higher = more abundant; growth selection in yeast, the domain comes from the species named
Details: Homo sapiens

Variant	abundance fitness
KILMCPEHETERINMYCELCRRPVCHLCKLGGNHATHRVTTMSSA	-0.024 ± 0.054
KILMCPEHETERINMYCELCRRPVCHLCKLGGNHALHRVTTMSSA	-0.097 ± 0.049
KILMCPEHETERINMYCELCRRPVCHLCKLGGNHAHHRVTTMSSA	-0.05 ± 0.058
KILMCPEHETERINMYCELCRRPVCHLCKLGGNHAAHRVTTMSSA	0.029 ± 0.049
KILMCPEHETERINMYCELCRRPVCHLCKLGGNHAKHRVTTMSSA	-0.023 ± 0.08
KILMCPEHETERINMYCELCRRPVCHLCKLGGNHAYHRVTTMSSA	-0.147 ± 0.089
KILMCPEHETERINMYCELCRRPVCHLCKLGGNHASHRVTTMSSA	-0.052 ± 0.051
KILMCPEHETERINMYCELCRRPVCHLCKLGGNHAGHRVTTMSSA	-0.059 ± 0.053
KILMCPEHETERINMYCELCRRPVCHLCKLGGNHAEHRVTTMSSA	0.039 ± 0.064
KILMCPEHETERINMYCELCRRPVCHLCKLGGNHADHRVTTMSSA	-0.005 ± 0.077
KILMCPEHETERINMYCELCRRPVCHLCKLGGNHAVHRVTTMSSA	-0.202 ± 0.052
KILMCPEHETERINMYCELCRRPVCHLCKLGGNHANHDVTTMSSA	0.05 ± 0.069
KILMCPEHETERINMYCELCRRPVCHLCKLGGNHANHCVTTMSSA	0.017 ± 0.067
KILMCPEHETERINMYCELCRRPVCHLCKLGGNHANHPVTTMSSA	-0.011 ± 0.058
KILMCPEHETERINMYCELCRRPVCHLCKLGGNHANHWVTTMSSA	0 ± 0.098
KILMCPEHETERINMYCELCRRPVCHLCKLGGNHANHTVTTMSSA	0.075 ± 0.062
KILMCPEHETERINMYCELCRRPVCHLCKLGGNHANHNVTTMSSA	-0.002 ± 0.08
KILMCPEHETERINMYCELCRRPVCHLCKLGGNHANHYVTTMSSA	-0.005 ± 0.093
KILMCPEHETERINMYCELCRRPVCHLCKLGGNHANHFVTTMSSA	-0.121 ± 0.1

Variant	abundance fitness
KILMCPEHETERINMYCELCRRPVCHLCKLGGNHANHKVTTMSSA	-0.006 ± 0.071
KILMCPEHETERINMYCELCRRPVCHLCKLGGNHANHVVTTMSSA	0.036 ± 0.055
KILMCPEHETERINMYCELCRRPVCHLCKLGGNHANHEVTTMSSA	0.085 ± 0.061
KILMCPEHETERINMYCELCRRPVCHLCKLGGNHANHSVTTMSSA	0.018 ± 0.073
KILMCPEHETERINMYCELCRRPVCHLCKLGGNHANHMVTTMSSA	0.008 ± 0.055
KILMCPEHETERINMYCELCRRPVCHLCKLGGNHANHQVTTMSSA	0.024 ± 0.078
KILMCPEHETERINMYCELCRRPVCHLCKLGGNHANHGVTTMSSA	0.108 ± 0.045
KILMCPEHETERINMYCELCRRPVCHLCKLGGNHANHAVTTMSSA	0.021 ± 0.049
KILMCPEHETERINMYCELCRRPVCHLCKLGGNHANHIVTTMSSA	-0.11 ± 0.087
KILMCPEHETERINMYCELCRRPVCHLCKLGGRHANHRVTTMSSA	-0.066 ± 0.052
KILMCPEHETERINMYCELCRRPVCHLCKLGGTHANHRVTTMSSA	0.044 ± 0.052
KILMCPEHETERINMYCELCRRPVCHLCKLGGSHANHRVTTMSSA	0.036 ± 0.048
KILMCPEHETERINMYCELCRRPVCHLCKLGGQHANHRVTTMSSA	0.073 ± 0.06
KILMCPEHETERINMYCELCRRPVCHLCKLGGVHANHRVTTMSSA	0.039 ± 0.055
KILMCPEHETERINMYCELCRRPVCHLCKLGGMHANHRVTTMSSA	-0.015 ± 0.064
KILMCPEHETERINMYCELCRRPVCHLCKLGGPHANHRVTTMSSA	0.092 ± 0.057
KILMCPEHETERINMYCELCRRPVCHLCKLGGYHANHRVTTMSSA	-0.153 ± 0.066
KILMCPEHETERINMYCELCRRPVCHLCKLGGWHANHRVTTMSSA	-0.178 ± 0.062
KILMCPEHETERINMYCELCRRPVCHLCKLGGNFANHRVTTMSSA	-0.614 ± 0.19

Variant	abundance fitness
KILMCPEHETERINMYCELCRRPVCHLCKLGGNWANHRVTTMSSA	-0.733 ± 0.063
KILMCPEHETERINMYCELCRRPVCHLCKLGGNEANHRVTTMSSA	-0.272 ± 0.055
KILMCPEHETERINMYCELCRRPVCHLCKLGGNYANHRVTTMSSA	-0.562 ± 0.072
KILMCPEHETERINMYCELCRRPVCHLCKLGGNAANHRVTTMSSA	-0.334 ± 0.05
KILMCPEHETERINMYCELCRRPVCHLCKLGGNDANHRVTTMSSA	-0.326 ± 0.066
KILMCPEHETERINMYCELCRRPVCHLCKLGGNCANHRVTTMSSA	0.033 ± 0.06
KILMCPEHETERINMYCELCRRPVCHLCKLGGNVANHRVTTMSSA	-0.444 ± 0.056
KILMCPEHETERINMYCELCRRPVCHLCKLGGNNANHRVTTMSSA	-0.46 ± 0.084
KILMCPEHETERINMYCELCRRPVCHLCKLGGNRANHRVTTMSSA	-0.541 ± 0.048
KILMCPEHETERINMYCELCRRPVCHLCKLGGNTANHRVTTMSSA	-0.338 ± 0.063
KILMCPEHETERINMYCELCRRPVCHLCKLGGNIANHRVTTMSSA	-0.738 ± 0.15
KILMCPEHETERINMYCELCRRPVCHLCKLGGNMANHRVTTMSSA	-0.431 ± 0.059
KILMCPEHETERINMYCELCRRPVCHLCKLGGNGANHRVTTMSSA	-0.288 ± 0.049
KILMCPEHETERINMYCELCRRPVCHLCKLGGNSANHRVTTMSSA	-0.318 ± 0.054
KILMCPEHETERINMYCELCRRPVCHLCKLGGNKANHRVTTMSSA	-0.485 ± 0.059
KILMCPEHETERINMYCELCRRPVCHLCKLGGNPANHRVTTMSSA	-0.391 ± 0.078
KILMCPEHETERINMYCELCRRPVCHLCKLGGNHANHRVATMSSA	-0.027 ± 0.064
KILMCPEHETERINMYCELCRRPVCHLCKLGGNHANHRVDTMSSA	0.039 ± 0.074
KILMCPEHETERINMYCELCRRPVCHLCKLGGNHANHRVETMSSA	-0.04 ± 0.066
